Laboratory results as given in article PMC9555771 (Science Advances, 2022).

Key:
[1] = target: MsbA (WT), overexpressed in E. coli membranes and cells (Escherichia coli K-12, UniProt P60752); assay: DEER
[2] = target: T1, MsbA (WT), purified, His tag cleaved (Escherichia coli K-12); assay: cryo-EM structure
T1 chain: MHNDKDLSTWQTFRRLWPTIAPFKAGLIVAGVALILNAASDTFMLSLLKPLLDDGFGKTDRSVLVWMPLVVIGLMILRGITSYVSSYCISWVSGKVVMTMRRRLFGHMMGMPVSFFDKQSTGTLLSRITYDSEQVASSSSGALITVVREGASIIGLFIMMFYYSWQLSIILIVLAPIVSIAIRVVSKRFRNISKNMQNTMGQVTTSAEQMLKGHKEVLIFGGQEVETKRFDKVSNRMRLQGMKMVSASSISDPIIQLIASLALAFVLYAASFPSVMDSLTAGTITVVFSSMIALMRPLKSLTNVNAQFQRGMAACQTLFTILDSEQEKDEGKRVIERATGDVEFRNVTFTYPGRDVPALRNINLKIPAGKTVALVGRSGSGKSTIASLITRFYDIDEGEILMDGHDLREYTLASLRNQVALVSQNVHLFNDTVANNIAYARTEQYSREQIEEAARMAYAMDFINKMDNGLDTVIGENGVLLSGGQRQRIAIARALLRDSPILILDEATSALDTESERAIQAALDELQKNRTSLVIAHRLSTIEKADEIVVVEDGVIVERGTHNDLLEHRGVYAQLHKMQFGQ

[3] = target: Avi-tagged full-length MsbA, biotinylated, detergent-solubilized (Escherichia coli (K-12 sequence), UniProt P60752, biotin on the Avi-tag (enzymatic, BirA)); assay: grating-coupled interferometry

Measured: binding result

B1: Nb_MsbA#1_A60C labeled with Gd-DOTA (VHH)
VHH: QMQLVESGGGLVQAGGSLRLSCAVSGSIFSIITLAWYRQAPGKPRENVATITRGSRTSYCDSVKGRFTISKDNAKSTVYLQMNKLKPEDTADYYCNAEGPAGYWGQGTPVTVS
binds: all assays above

B2: Nb_MsbA#1_T68C labeled with Gd-DOTA (VHH)
VHH: QMQLVESGGGLVQAGGSLRLSCAVSGSIFSIITLAWYRQAPGKPRENVATITRGSRTSYADSVKGRFCISKDNAKSTVYLQMNKLKPEDTADYYCNAEGPAGYWGQGTPVTVS
binds: all assays above
